The values below are quoted from earlier work in paper PMC5141497.

For data set [1], the target named is Did2 MIM1 (Saccharomyces cerevisiae) (UniProt P69771).
Data set [2] deals with Vps2 MIM1 (Saccharomyces cerevisiae) (UniProt P36108).
Data set [3] addresses Did2 MIM1 (Saccharomyces cerevisiae) (UniProt P69771). This is another data set of the same source.

Like-named read-outs stand apart in the source and are kept apart here.

Vps4 MIT, sequence (P52917 1-83): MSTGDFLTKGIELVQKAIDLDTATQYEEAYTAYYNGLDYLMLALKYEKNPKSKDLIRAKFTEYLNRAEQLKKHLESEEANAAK
Did2 MIM1 (Saccharomyces cerevisiae), sequence (P69771 176-204): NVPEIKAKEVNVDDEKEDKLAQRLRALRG
Ist1 NTD, sequence (P53843 1-193): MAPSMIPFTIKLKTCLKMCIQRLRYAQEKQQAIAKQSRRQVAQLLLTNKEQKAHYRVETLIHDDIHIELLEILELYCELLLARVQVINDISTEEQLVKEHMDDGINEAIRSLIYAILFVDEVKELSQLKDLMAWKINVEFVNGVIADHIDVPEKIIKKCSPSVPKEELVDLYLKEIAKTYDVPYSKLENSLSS
Vps2 MIM1 (Saccharomyces cerevisiae), sequence (P36108 183-232): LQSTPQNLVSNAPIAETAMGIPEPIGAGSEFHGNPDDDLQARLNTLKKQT

As a reminder, the Kd is the constant that tells how readily two partners part at equilibrium. With Vps4 MIT (from UniProt P52917), the values for the equilibrium dissociation constant (Kd) in data set [1] and in data set [2] were 39 µM and 28 µM, respectively.
With Ist1 NTD (from UniProt P53843), in data set [3], the Kd is 1 µM.
